Substitutions are numbered along the chain they refer to.
B1: H1H624P: anti-hANGPTL4 antibody, HCVR/LCVR SEQ ID NOs 210/212 (antibody, V domains shown)
VH: EVQLVESGGGLVQPGGSLRLSCAASEFIFSSYAMNWVRQAPGKGLEWVSVISGSGDSKYYADSVKGRFTISRDNSKNTLYLQMNSLRVEDTAVYYCAKDGKDRYGFYYNFYGMDVWGQGTTVTVS
VL: DIQMTQSPSFLSASVGDRVTITCWASQGISSYLAWYQQKPGKAPKILIYAASTLQSGVPSRFSASGSGTEFTLTISSLQPEDFATYHCQQLNSYPFTFGPGTKVDIK
B2: H1H257P: anti-hANGPTL4 antibody, HCVR/LCVR SEQ ID NOs 18/20 (antibody, V domains shown)
VH: EVQLVESGGGLVQPGGSLRLSCAASGFTFSSYDMHWVRQVAGKGLEWVSAIGTAGDTYYPVSVKGRFTISRENAKNSLYLHMNSLRAGDTAVYFCARGDSRNYYVGDYFDYWGQGTLVTVSS
VL: DIQMTQSPSTLSASVGDRVTITCRASQSISRWLAWYQQKPGKAPKVLIYQASNLESGVPSRFSGSGSGTEFTLTISSLQPDDFATYYCQQYDSYSRAFGRGTKVEIK
B3: H1H291P: anti-hANGPTL4 antibody, HCVR/LCVR SEQ ID NOs 138/140 (antibody, V domains shown)
VH: EVQLVESGGGLVQPGGSLRLSCAASGFTFSTYDMHWVRQGLGKGLEWVSAIGSAGDTYYPGSVKGRFTISRDNAKSSLFLHMNSLRAGDTALYYCARGDSRNYFVGDYFDYWGQGTLVTVSS
VL: B2 VL with V15I, R31S, Q50K, N53S, S56A, T85S, D92S, A97T, R100Q
B4: H1H638P: anti-hANGPTL4 antibody, HCVR/LCVR SEQ ID NOs 258/260 (antibody, V domains shown)
VH: B2 VH with A23V, S49A, Y79S, F94Y
VL: B2 VL with Q50K, N53S, E55K, P80S, D92N, A97T, R100Q
B5: H1H283P: anti-hANGPTL4 antibody, HCVR/LCVR SEQ ID NOs 66/68 (antibody, V domains shown)
VH: B2 VH
VL: B2 VL with Q50K, D92N, A97T, R100Q
B6: H1H285P: anti-hANGPTL4 antibody, HCVR/LCVR SEQ ID NOs 114/116 (antibody, V domains shown)
VH: B2 VH with S31R, A41T, A50G, V61G, A74D, H81Q, A87V, F94Y, R101K
VL: DIQMTQSPSTLSASVGDRVTFTCRASHSIGNWLAWYQQKPGKAPKVLIYEASSLEDGVPSRFSGSGSGTEFTLTISSLQPDDFATYYCQQYDTYFRTFGQGTKVEIK
B7: H1H292P: anti-hANGPTL4 antibody, HCVR/LCVR SEQ ID NOs 162/164 (antibody, V domains shown)
VH: B2 VH with A23V, V40L, A41P, T53V, V61A, H81Q, F94Y, R101G, V105D, Y111F
VL: B2 VL with S30N, Q50K, S95F, A97T, R100Q
B8: H1H653P: anti-hANGPTL4 antibody, HCVR/LCVR SEQ ID NOs 306/308 (antibody, V domains shown)
VH: QVQLVESGGGVVQPGRSLRLSCVASGFTFSSYGMHWVRQAPGKGLEWMAVIWYDGSNKYFADSVKDRFTISRDNSKNTLYLQMNTLRPDDTAVYYCVKADAPLLIYGVDVWGQGTTVTVS
VL: DIQMTQSPSSLSASVGDRVTITCRASQGIRNDLGWYQEKPGKAPKRLIYFASSLQSGVPSRFSGSGSGTEFTLTISSLQPEDFATYYCLQHNSYPYTFGQGTKLEIK
B9: H1H295P: anti-hANGPTL4 antibody, HCVR/LCVR SEQ ID NOs 186/188 (antibody, V domains shown)
VH: B3 VH with G40A, L41P, H81Q
VL: DIQMTQSPSTLSASVGDRVTITCRASQSIGTWLAWYQQKPGKAPKILIYKASSLEGGVPSRFSGSGSGTEFTLTISSLQPDDFANYYCQQYNSFYRTFGQGTKVEIK
B10: H1H236N2: anti-hANGPTL4 antibody, HCVR/LCVR SEQ ID NOs 458/394 (antibody, V domains shown)
VH: EVQLVESGGGLVQPGRSLRLSCAASGFTFDDYAMHWVRQAPGKGLEWVSGISWNSGSIVYADSVKGRFTISRDNAKNSLYLQMNSLISEDTALYYCAKDESSSSGNWFDPWGQGTLVTVSS
VL: EVVMTQSPATLSVSPGERATLSCRASQSVSSNLAWYQQKPGQAPRLLIYGASTRATGIPARFSGSGSGTEFTLTISSLQSEDFAVYYCQEYNNWITFGQGTRLEIK

System: C57BL/6 mice given hANGPTL4-mFc
Format: in vivo
Details: antibody 5 mg/kg s.c.; 24 h later hANGPTL4-mFc 25 μg/mouse i.v.; bled 30 min after; mean±SEM
Protocol: In another set of experiments, selected anti-hANGPTL4 antibodies were tested for their ability to inhibit hANGPTL4-induced increase of triglyceride levels. Measurements of total cholesterol, LDL, NEFA-C and HDL were also made. Briefly, C57BL/6 mice were put into groups of five mice each for each antibody tested. Antibodies were administered at 5 mg/kg dose by subcutaneous injection. Control group I, i.e., mice that received neither anti-hANGPTL4 antibodies nor hANGPTL4, were administered with PBS. Twenty-four hours post-injection of antibody, hANGPTL4-mFc (SEQ ID NO:480) was administered (i.v.) at a dose of 25 μg/mouse to each antibody group. Mice were bled at 30 min after hANGPTL4-mFc injection and lipid levels were determined by ADVIA® 1650 Chemistry System (Siemens). Averages were calculated for each of the measurements of triglycerides, total cholesterol (Total-C), LDL, NEFA-C and HDL for each antibody or control group. Levels of circulating anti-hANGPTL4 antibodies (Serum Ab) were also determined using a standard ELISA assay. Briefly, plates were coated with a goat anti-human Fc antibody (Sigma-Aldrich) to capture Serum Ab. Serum was then added to the plates and captured anti-hANGPTL4 antibodies were detected by chemiluminescence using a horseradish peroxidase (HRP) conjugated goat anti-human IgG antibody (Sigma-Aldrich). Control I: Mice that received PBS, but neither anti-hANGPTL4 antibodies nor hANGPTL4-mFc. Control II: Mice that received a human antibody specific for CD20 (i.e., the mAb having the sequence of 2F2 clone disclosed in US 2008/0260641) and hANGPTL4-mFc.

Molecule	HDL [mg/dL]	LDL [mg/dL]	NEFA-C [mg/dL]	Total-C [mg/dL]	Triglycerides [mg/dL]
B1	35.40 ± 2.68	4.36 ± 0.92	0.86 ± 0.07	72.80 ± 5.49	81.20 ± 9.26
B2	41.38 ± 3.24	5.30 ± 0.36	0.97 ± 0.03	84.40 ± 3.53	115.80 ± 6.43
B3	38.24 ± 2.14	3.84 ± 0.12	1.11 ± 0.04	71.20 ± 3.26	111.00 ± 7.51
B4	39.54 ± 1.65	4.14 ± 0.18	1.06 ± 0.05	73.80 ± 2.78	102.80 ± 10.75
B5	40.30 ± 0.72	4.62 ± 0.39	1.13 ± 0.05	75.80 ± 1.53	113.60 ± 8.74
B6	42.20 ± 0.91	3.72 ± 0.44	0.97 ± 0.06	76.40 ± 1.75	91.40 ± 11.99
B7	39.44 ± 1.68	3.96 ± 0.15	1.06 ± 0.06	74.40 ± 2.11	85.80 ± 7.00
B8	40.10 ± 2.72	3.84 ± 0.32	1.04 ± 0.1	74.20 ± 4.49	88.00 ± 13.52
B9	39.70 ± 3.13	4.04 ± 0.40	1.12 ± 0.04	74.60 ± 4.82	104.80 ± 9.44
B10	33.78 ± 1.13	4.26 ± 0.25	1.11 ± 0.18	72.40 ± 1.81	151.80 ± 9.26
